Target: recombinant human IL-1β (human, UniProt P01584 117-269)
Test: cell-based or functional assay

- IC50 (read off the curve); % inhibition of IL-6 release from human fibroblasts stimulated with IL-1 beta at 100 pg/ml: ~0.2 nM
B1: AB1 (antibody, V domains shown)
VH: QVTLKESGPGILKPSQTLSLTCSFSGFSLSTSGMGVGWIRQPSGKGLEWLAHIWWDGDESYNPSLKTQLTISKDTSRNQVFLKITSVDTVDTATYFCARARYDPPWFVDWGQGTLVTVSS
VL: DIQMTQTTSSLSASLGDRVTISCRASQDISNYLSWYQQKPDGTVKLLIYYTSKLHSGVPSRFSGSGSGTDYSLTISNLEQEDIATYFCLQGKMLPWTFGGGTKLEIK
